Values joined by “and” are separate entries in the source; they are usually repeats but may differ in a detail not shown here. Equal values may be shown once. Read-outs that look alike come from different tables or passages of the source.
What was measured:
[1] = molecular target: T1, Nrd1 part (residues 158-222) of the Nrd1_(158-222)-Nab3_(202-261) chimera (S. cerevisiae, UniProt P53617 158-222); assay: NMR structure; the two stretches joined on one chain (chimera Nrd1_(158-222)-Nab3_(202-261)); 10 mM sodium acetate pH 5.1, 25 mM NaCl, 1 mM DTT, 25°C, ~1 mM protein; conditions: both partners purified
T1 construct: also called Nrd1 segment of the Nrd1–Nab3 chimera; source: E. coli BL21(DE3), purified (IMAC, TEV digestion, second IMAC, gel filtration); not shown: TxA (E. coli thioredoxin A), N-terminal, cleaved; His6, N-terminal, cleaved
T1 sequence (looked up): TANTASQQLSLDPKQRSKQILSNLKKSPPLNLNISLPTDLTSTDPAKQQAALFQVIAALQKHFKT

Nrd1_(147-222/290-489) [2] = molecular target: T2, Nrd1_(147-222/290-489) (S. cerevisiae, UniProt P53617 147-489, lacking residues 223–289); assay: ITC
T2 sequence: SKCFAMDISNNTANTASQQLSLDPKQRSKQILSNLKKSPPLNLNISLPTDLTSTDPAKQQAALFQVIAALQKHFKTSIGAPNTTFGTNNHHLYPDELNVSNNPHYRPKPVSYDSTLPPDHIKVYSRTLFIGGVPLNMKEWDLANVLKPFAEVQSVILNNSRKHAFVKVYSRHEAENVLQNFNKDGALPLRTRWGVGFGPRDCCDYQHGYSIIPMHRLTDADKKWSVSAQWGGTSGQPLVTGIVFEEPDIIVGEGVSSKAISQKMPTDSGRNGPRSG

[3] = molecular target: T3, txA-HTEV-Nrd1_(147-222) NAID (S. cerevisiae, UniProt P53617 147-222); assay: ITC
T3 chain: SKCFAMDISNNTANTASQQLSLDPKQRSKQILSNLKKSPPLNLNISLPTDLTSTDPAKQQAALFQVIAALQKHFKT

Nrd1_(1-222) [4] = molecular target: T4, Nrd1_(1-222) (S. cerevisiae, UniProt P53617 1-222); assay: ITC
T4 chain: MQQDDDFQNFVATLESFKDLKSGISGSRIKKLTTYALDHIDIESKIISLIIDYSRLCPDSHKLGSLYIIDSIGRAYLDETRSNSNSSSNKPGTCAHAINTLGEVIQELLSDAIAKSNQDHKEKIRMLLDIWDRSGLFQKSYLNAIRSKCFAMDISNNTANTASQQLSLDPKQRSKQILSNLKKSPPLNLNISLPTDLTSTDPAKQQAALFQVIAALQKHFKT

Nrd1_(147-222/290-489) [5] = molecular target: T2, Nrd1_(147-222/290-489); assay: ITC; remark: listed apart in the source
Nrd1_(1-222) [6] = molecular target: T4, Nrd1_(1-222); assay: ITC
Nrd1_(147-222/290-489) [7] = molecular target: T2, Nrd1_(147-222/290-489); assay: ITC; remark: listed apart in the source
[8] = molecular target: T3, txA-HTEV-Nrd1_(147-222) NAID; assay: ITC
Nrd1_(1-222) [9] = molecular target: T4, Nrd1_(1-222); assay: ITC
Nrd1_(1-222) [10] = molecular target: T5, Nrd1_(1-222) (S. cerevisiae, UniProt P53617 1-222); assay: ITC; Nab3_(191-261) (198 μM) in the syringe titrated into Nrd1 variants in the cell (19-54 μM); 15°C; 20 mM potassium phosphate pH 7.0, 150 mM NaCl, 1 mM β-mercaptoethanol; one-site binding model; duplicates; conditions: both partners purified
T5 construct: also called Nrd1 construct including the CID and NAID; source: E. coli BL21(DE3), purified (IMAC, TEV digestion, second IMAC, gel filtration); not shown: TxA (E. coli thioredoxin A), N-terminal, cleaved; His6, N-terminal, cleaved
T5 sequence (looked up): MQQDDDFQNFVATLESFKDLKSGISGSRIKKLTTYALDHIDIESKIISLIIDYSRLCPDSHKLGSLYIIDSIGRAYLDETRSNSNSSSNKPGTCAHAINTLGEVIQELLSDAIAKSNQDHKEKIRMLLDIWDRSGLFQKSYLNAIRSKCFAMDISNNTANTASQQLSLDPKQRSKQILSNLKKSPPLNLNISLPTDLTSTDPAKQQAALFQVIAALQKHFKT

Nrd1_(147-222/290-489) [11] = molecular target: T6, Nrd1_(147-222/290-489) (S. cerevisiae, UniProt P53617 147-489, lacking residues 223–289); assay: as above; conditions: both partners purified
T6 construct: no linker is mentioned; source: E. coli BL21(DE3), purified (IMAC, TEV digestion, second IMAC, gel filtration); not shown: TxA (E. coli thioredoxin A), N-terminal, cleaved; His6, N-terminal, cleaved
T6 sequence (looked up): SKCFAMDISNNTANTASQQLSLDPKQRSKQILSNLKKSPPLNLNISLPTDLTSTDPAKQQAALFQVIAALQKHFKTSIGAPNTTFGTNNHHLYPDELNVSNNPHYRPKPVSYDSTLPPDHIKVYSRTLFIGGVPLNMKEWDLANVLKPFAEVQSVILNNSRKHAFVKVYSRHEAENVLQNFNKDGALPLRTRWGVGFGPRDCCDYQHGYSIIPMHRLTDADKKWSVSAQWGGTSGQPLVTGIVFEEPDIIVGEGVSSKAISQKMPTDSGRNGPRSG

B1: Nab3 part (residues 202-261) of the Nrd1_(158-222)-Nab3_(202-261) chimera (domain or fragment, S. cerevisiae, UniProt P38996 202-261, looked up)
chain: NMENVNYDLLQKQVKYIMDSNMLNLPQFQHLPQEEKMSAILAMLNSNSDTALSVPPHDST
notes: Nab3, S. cerevisiae, residues 202-261; also called Nab3 segment of the Nrd1–Nab3 chimera; source: E. coli BL21(DE3), purified (IMAC, TEV digestion, second IMAC, gel filtration)
binding result [1]: binds

B2: Nrd1 interaction domain of Nab3 (Nab3 191-261) (domain or fragment, S. cerevisiae, UniProt P38996 191-261, looked up)
chain: REENDNTHFPTNMENVNYDLLQKQVKYIMDSNMLNLPQFQHLPQEEKMSAILAMLNSNSDTALSVPPHDST
notes: 15N/13C-labelled or unlabelled for NMR; natural abundance for ITC; also called NRID; Nab3 NRID; source: E. coli BL21(DE3), purified (IMAC, TEV digestion, second IMAC, gel filtration); not shown: TxA (E. coli thioredoxin A), N-terminal, cleaved; His6, N-terminal, cleaved
Ka (Nrd1_(147-222/290-489) [2]): 4.97e+07 M⁻¹ | Ka [3]: 4.06e+07 M⁻¹ and 4.34e+07 M⁻¹ | Ka (Nrd1_(1-222) [4]): 7.22e+06 M⁻¹ | Kd (Nrd1_(147-222/290-489) [5]): 0.036 µM | Kd (Nrd1_(1-222) [6]): 0.13 µM | Kd (Nrd1_(147-222/290-489) [7]): 0.02 µM | Kd [8]: 0.023 µM and 0.025 µM | Kd (Nrd1_(1-222) [9]): 0.14 µM | stoichiometry N (Nrd1_(1-222) [10]): 0.4 | fold tighter binding than with Nrd1_(1-222) (Nrd1_(147-222/290-489) [11]): ~4 fold

Reference: paper PMC8761494, “Structural basis of Nrd1–Nab3 heterodimerization” (Life Science Alliance, 2022)
